Assay in all cases: yeast two-hybrid
The target of assay [1] is T1, upstream of N-ras, alt. transcript (798) (UNR) 110-528 (human, UniProt O75534 110-528).
T1 construct: prey (Gal4 AD-HA fusion)
T1 sequence (looked up): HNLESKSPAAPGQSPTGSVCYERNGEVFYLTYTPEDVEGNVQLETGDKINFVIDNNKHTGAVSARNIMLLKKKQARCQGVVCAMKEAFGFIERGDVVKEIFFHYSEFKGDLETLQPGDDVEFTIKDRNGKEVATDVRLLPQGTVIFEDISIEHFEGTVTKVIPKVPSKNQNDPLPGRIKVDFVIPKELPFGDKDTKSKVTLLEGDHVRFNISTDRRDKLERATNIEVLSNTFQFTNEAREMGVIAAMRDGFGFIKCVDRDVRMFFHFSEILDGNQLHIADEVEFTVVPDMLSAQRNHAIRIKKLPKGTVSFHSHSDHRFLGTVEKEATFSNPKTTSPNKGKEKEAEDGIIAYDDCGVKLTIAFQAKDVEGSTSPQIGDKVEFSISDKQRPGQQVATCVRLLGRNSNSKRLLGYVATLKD

Assay [2] has as its target T2, Charcot-Leyden crystal protein; periplakin (PPL) 1548-1756 (human, UniProt O60437 1548-1756).
T2 construct: prey (Gal4 AD-HA fusion)
T2 sequence (looked up): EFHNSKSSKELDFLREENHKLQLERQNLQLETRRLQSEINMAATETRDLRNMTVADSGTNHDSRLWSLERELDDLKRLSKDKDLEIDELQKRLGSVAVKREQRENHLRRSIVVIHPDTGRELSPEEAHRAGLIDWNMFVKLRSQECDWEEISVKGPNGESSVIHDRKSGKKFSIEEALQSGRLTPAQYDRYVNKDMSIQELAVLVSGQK

The target in assay [3] is T3, Golgi autoantigen (Golgin-84) 198-501 (human, UniProt Q8TBA6 198-501).
T3 construct: prey (Gal4 AD-HA fusion)
T3 sequence (looked up): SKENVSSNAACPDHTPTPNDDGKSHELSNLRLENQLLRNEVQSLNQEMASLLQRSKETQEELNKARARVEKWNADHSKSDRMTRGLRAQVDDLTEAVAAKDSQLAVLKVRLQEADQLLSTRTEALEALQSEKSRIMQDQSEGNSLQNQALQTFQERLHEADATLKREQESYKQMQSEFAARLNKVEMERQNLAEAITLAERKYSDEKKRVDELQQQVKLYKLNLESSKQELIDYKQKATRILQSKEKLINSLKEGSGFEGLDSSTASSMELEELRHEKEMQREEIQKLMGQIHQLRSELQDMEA

A further assay concerns the target T4, VPS28 protein 9-211 (human, UniProt Q9UK41 9-211).
T4 construct: prey (Gal4 AD-HA fusion); also called vacuolar protein sorting 28
T4 sequence (looked up): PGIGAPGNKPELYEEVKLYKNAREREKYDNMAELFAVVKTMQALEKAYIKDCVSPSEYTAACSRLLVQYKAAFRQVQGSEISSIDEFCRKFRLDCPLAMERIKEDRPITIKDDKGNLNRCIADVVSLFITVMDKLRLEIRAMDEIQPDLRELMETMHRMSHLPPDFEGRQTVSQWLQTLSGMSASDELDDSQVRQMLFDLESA

In assay [4] the target is T5, Cytoplasmic linker 2 (CYLN2) 607-947 (human, UniProt Q9UDT6 607-947).
T5 construct: prey (Gal4 AD-HA fusion)
T5 sequence (looked up): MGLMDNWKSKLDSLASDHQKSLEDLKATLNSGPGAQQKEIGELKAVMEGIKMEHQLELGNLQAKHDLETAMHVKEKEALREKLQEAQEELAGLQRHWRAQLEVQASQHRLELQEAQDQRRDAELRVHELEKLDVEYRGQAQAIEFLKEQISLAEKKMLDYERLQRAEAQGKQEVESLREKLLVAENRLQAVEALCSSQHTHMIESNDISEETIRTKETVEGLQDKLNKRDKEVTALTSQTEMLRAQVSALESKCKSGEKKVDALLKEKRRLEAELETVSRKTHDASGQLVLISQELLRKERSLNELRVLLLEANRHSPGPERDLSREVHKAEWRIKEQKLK

The target of the next assay is T6, VPS28 protein 10-221 (human, UniProt Q9UK41 10-221).
T6 construct: prey (Gal4 AD-HA fusion); also called vacuolar protein sorting 28
T6 sequence (looked up): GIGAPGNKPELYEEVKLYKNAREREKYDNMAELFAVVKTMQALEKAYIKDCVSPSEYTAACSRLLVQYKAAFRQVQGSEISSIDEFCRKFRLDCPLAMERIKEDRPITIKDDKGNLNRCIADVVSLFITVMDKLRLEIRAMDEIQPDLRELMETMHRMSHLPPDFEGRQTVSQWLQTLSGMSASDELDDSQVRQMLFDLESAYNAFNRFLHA

The target in assay [5] is T7, Protein kinase C and casein kinase substrate (PACSIN2) 174-367 (human, UniProt Q9UNF0 174-367).
T7 construct: prey (Gal4 AD-HA fusion)
T7 sequence (looked up): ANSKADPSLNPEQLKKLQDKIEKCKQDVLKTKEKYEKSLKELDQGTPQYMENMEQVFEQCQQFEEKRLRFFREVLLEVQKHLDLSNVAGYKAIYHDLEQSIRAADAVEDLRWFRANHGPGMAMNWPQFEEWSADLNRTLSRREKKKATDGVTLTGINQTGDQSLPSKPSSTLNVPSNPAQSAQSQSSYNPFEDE

For assay [6], the target named is T8, Apolipoprotein A-I (APOA1) 106-267 (human, UniProt P02647 106-267).
T8 construct: bait (Gal4 DBD fusion)
T8 sequence (P02647 106-267 limits assumed, form in doubt): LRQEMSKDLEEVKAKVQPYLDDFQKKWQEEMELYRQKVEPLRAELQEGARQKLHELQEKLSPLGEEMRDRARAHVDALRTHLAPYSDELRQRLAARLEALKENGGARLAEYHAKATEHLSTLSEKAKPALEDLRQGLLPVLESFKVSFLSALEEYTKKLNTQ

Assay [7] addresses T9, Catenin, alpha 2 (A2-CAT) 1-166 (human, UniProt P26232 1-166).
T9 construct: prey (Gal4 AD-HA fusion)
T9 sequence (looked up): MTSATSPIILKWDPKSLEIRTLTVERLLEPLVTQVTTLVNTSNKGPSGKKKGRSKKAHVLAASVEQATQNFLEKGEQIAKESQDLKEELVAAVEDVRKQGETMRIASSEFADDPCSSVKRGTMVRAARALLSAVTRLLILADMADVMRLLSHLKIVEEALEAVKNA

Assay [8] has as its target T10, Catenin, alpha 2 (A2-CAT) 55-487 (human, UniProt P26232 55-487).
T10 construct: prey (Gal4 AD-HA fusion)
T10 sequence (looked up): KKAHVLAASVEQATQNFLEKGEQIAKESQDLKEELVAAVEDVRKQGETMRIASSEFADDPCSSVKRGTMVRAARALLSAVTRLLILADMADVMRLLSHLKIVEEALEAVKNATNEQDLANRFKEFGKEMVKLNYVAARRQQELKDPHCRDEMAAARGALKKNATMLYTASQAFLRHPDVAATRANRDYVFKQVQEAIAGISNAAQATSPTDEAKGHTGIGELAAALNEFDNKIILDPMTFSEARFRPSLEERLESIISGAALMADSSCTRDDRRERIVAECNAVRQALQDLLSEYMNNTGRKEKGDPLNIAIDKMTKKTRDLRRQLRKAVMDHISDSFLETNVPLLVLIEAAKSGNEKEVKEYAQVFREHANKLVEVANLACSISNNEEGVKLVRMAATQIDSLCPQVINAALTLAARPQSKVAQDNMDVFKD

In assay [9] the target is T11, Chromosome-associated polypeptide HCAP (HCAP) 119-353 (human, UniProt Q9UQE7 119-353).
T11 construct: prey (Gal4 AD-HA fusion)
T11 sequence (Q9UQE7 119-353 limits assumed): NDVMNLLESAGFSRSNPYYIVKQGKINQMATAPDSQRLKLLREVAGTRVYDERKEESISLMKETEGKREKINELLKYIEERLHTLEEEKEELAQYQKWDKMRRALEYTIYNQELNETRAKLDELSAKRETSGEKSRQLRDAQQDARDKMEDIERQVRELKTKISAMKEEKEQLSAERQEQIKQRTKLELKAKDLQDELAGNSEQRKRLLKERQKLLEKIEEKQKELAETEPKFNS

For assay [10], the target named is T12, golgi autoantigen, golgin subfamily a, 5 (Golgin-84) 609-731 (human, UniProt Q8TBA6 609-731).
T12 construct: prey (Gal4 AD-HA fusion)
T12 sequence (looked up): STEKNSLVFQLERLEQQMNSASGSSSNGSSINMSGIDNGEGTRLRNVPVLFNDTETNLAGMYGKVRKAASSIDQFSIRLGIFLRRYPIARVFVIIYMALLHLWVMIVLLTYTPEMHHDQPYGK

The target of assay [11] is T13, tetratricopeptide repeat domain 3 (TPRD) 1058-1189 (human, UniProt P53804 1058-1189).
T13 construct: prey (Gal4 AD-HA fusion)
T13 sequence (looked up): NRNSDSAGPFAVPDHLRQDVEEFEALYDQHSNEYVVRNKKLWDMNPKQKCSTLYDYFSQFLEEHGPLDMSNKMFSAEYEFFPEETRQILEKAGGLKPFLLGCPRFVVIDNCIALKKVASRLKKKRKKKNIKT

In assay [12] the target is T14, intracellular chloride channel protein (CLIC1) 51-210 (human, UniProt O00299 51-210).
T14 construct: range 51-210; prey (Gal4 AD-HA fusion); also called NCC27

The target of assay [13] is T15, intracellular chloride channel protein (CLIC1) 98-210 (human, UniProt O00299 98-210).
T15 construct: range 98-210; prey (Gal4 AD-HA fusion); also called NCC27

For another assay, the target named is T16, PIBF1 392-758 (human, UniProt Q8WXW3 392-757).
T16 construct: prey (Gal4 AD-HA fusion)
T16 sequence (looked up): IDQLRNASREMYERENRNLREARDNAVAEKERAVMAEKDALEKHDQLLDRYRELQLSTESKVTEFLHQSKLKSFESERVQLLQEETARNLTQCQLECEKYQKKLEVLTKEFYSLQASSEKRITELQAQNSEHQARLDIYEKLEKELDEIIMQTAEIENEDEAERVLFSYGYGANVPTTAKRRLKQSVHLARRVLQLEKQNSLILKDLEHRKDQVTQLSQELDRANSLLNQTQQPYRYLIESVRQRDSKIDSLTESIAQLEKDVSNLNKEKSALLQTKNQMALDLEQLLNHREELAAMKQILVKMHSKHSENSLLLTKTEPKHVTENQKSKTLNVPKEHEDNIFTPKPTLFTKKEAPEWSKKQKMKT

B1: ribosomal protein S6 kinase, 90 kDa, polypeptide 1 (p90RSK) 418-467 (enzyme, human, UniProt Q15418 418-467, looked up)
chain: YVVKETIGVGSYSECKRCVHKATNMEYAVKVIDKSKRDPSEEIEILLRYG
notes: range 418-467; bait (Gal4 DBD fusion); also called HU1
Take B1: the binding result in assay [1] was “binds”.

B2: v-akt murine thymoma viral oncogene homolog 1 (AKT1) 1-109 (enzyme, human, UniProt P31749 1-109, looked up)
chain: MSDVAIVKEGWLHKRGEYIKTWRPRYFLLKNDGTFIGYKERPQDVDQREAPLNNFSVAQCQLMKTERPRPNTFIIRCLQWTTVIERTFHVETPEEREEWTTAIQTVADG
notes: bait (Gal4 DBD fusion)
In the case of B2, the binding result in assay [2] was “binds”.

B3: Tumor Suppressor (TSG101) 231-391 (other, human, UniProt Q99816 231-390, looked up)
chain: ISAVSDKLRWRMKEEMDRAQAELNALKRTEEDLKKGHQKLEEMVTRLDQEVAEVDKNIELLKKKDEELSSALEKMENQSENNDIDEVIIPTAPLYKQILNLYAEENAIEDTIFYLGEALRRGVIDLDVFLKHVRLLSRKQFQLRALMQKARKTAGLSDLY
notes: bait (Gal4 DBD fusion)
Consider B3, for which the binding result (in [3]; with VPS28 protein 9-211; in assay [4]) was “binds” in each case.

B4: Tumor Suppressor (TSG101) 265-391 (other, human, UniProt Q99816 265-390, looked up)
chain: KGHQKLEEMVTRLDQEVAEVDKNIELLKKKDEELSSALEKMENQSENNDIDEVIIPTAPLYKQILNLYAEENAIEDTIFYLGEALRRGVIDLDVFLKHVRLLSRKQFQLRALMQKARKTAGLSDLY
notes: range 265-391; bait (Gal4 DBD fusion); also called TSG101 265-390
B4: the binding result (with VPS28 protein 10-221; in [5]) was “binds” throughout.

B5: syntaxin 2 (STX2) 156-261 (other, human, UniProt P32856 156-261, looked up)
chain: GRTTTDDELEEMLESGKPSIFTSDIISDSQITRQALNEIESRHKDIMKLETSIRELHEMFMDMAMFVETQGEMINNIERNVMNATDYVEHAKEETKKAIKYQSKAR
With B5, the binding result in [6] is “binds”.

B6: Survivin (BIRC5) 52-143 (other, human, UniProt O15392 52-142, looked up)
chain: PDLAQCFFCFKELEGWEPDDDPIEEHKKHSSGCAFLSVKKQFEELTLGEFLKLDRERAKNKIAKETNNKKKEFEETAKKVRRAIEQLAAMD
notes: range 52-143; bait (Gal4 DBD fusion); also called API4
On to B6, for which the binding result in assay [7] and in [8] was “binds” each time.

B7: Tumor Suppressor (TSG101) 264-391 (other, human, UniProt Q99816 264-390, looked up)
chain: KKGHQKLEEMVTRLDQEVAEVDKNIELLKKKDEELSSALEKMENQSENNDIDEVIIPTAPLYKQILNLYAEENAIEDTIFYLGEALRRGVIDLDVFLKHVRLLSRKQFQLRALMQKARKTAGLSDLY
notes: range 264-391; bait (Gal4 DBD fusion)
In the case of B7, the binding result in assay [9] is “binds”.

B8: v-akt murine thymoma viral oncogene homolog 1 (AKT1) 1-118 (enzyme, human, UniProt P31749 1-118, looked up)
chain: MSDVAIVKEGWLHKRGEYIKTWRPRYFLLKNDGTFIGYKERPQDVDQREAPLNNFSVAQCQLMKTERPRPNTFIIRCLQWTTVIERTFHVETPEEREEWTTAIQTVADGLKKQEEEEM
notes: bait (Gal4 DBD fusion)
With B8, in assay [10], the binding result was “binds”.

B9: v-akt murine thymoma viral oncogene homolog 2 (AKT2) 1-108 (enzyme, human, UniProt P31751 1-108, looked up)
chain: MNEVSVIKEGWLHKRGEYIKTWRPRYFLLKSDGSFIGYKERPEAPDQTLPPLNNFSVAECQLMKTERPRPNTFVIRCLQWTTVIERTFHVDSPDEREEWMRAIQMVAN
notes: bait (Gal4 DBD fusion)
Regarding B9, the binding result in assay [11], in assay [12] and in assay [13] was “binds” throughout.

B10: Tumor Suppressor (TSG101) 12-326 (other, human, UniProt Q99816 12-326, looked up)
chain: VSKYKYRDLTVRETVNVITLYKDLKPVLDSYVFNDGSSRELMNLTGTIPVPYRGNTYNIPICLWLLDTYPYNPPICFVKPTSSMTIKTGKHVDANGKIYLPYLHEWKHPQSDLLGLIQVMIVVFGDEPPVFSRPISASYPPYQATGPPNTSYMPGMPGGISPYPSGYPPNPSGYPGCPYPPGGPYPATTSSQYPSQPPVTTVGPSRDGTISEDTIRASLISAVSDKLRWRMKEEMDRAQAELNALKRTEEDLKKGHQKLEEMVTRLDQEVAEVDKNIELLKKKDEELSSALEKMENQSENNDIDEVIIPTAPLYK
notes: bait (Gal4 DBD fusion)
With B10, the binding result with PIBF1 392-758 is given as “binds”.
